According to patent US20260139017A1, “COMPOSITIONS AND METHODS USING REELIN IN ALZHEIMER'S DISEASE” (The General Hospital Corporation, priority 2022, published 2026):

Experiments:
pDAB1 (Tyr232) [1] = experiment: HRECs treated 5 minutes with HEK 293T-derived mini-RELN media, pDAB1 western blot; type: cell-based, human; conditions: HEK 293T-derived media 1:1, 1:4, 1:14, 5 minutes
Protocol: The effect of in vitro treatment with RELN or miniRELN protein was also evaluated. HRECs were cultured in EBM-2 media enriched with EGM-2 Single Quots (Lonza) at 37° C. and 5% CO2 and experimentally tested at passage 7. 24 h prior experiment, cells were plated on a 6-well plate at 500,000 cells/mL. Two hours before the experiment, the cells were washed with PBS to remove residual growth media and then incubated with a starving media including EBM-2, 1% GlutaMax+0,2% Normicin. Treatments was conducted using media derived from HEK 293T cells transiently transfected for 24 h with different mini-RELN constructs in the presence of Lipofectamine 2000. HEK-derived Lipofectamine2000-media was used as negative control. HEK 293T-derived media was tested at different ratio 1:1, 1:4, and 1:14 (Transfected media:Starving media). Each treatment was incubated for 5 minutes and cells were subsequently harvested in lysis buffer was applied constituted of RIPA (Cell signaling), proteases inhibitors (cOmplete™, Mini, EDTA-free Protease Inhibitor Cocktail, Roche), phosphatases inhibitors (PhosSTOP, Roche), 1 μL of proteasome inhibitor MG-132 10 mM, 1% Triton X 100. The lysates were scraped and centrifugated at 15000 rpm for 10 minutes at 4° C. Total protein levels were quantified via BCA assay. […] We detected pDAB1 (Tyr232; 1:1000, rabbit, #3325 Cell signaling), and Beta actin (1:5000, mouse, #66009-1-Ig, Proteintech. Antibodies were diluted using Intercept® (TBS) Blocking Buffer and incubated overnight at 4C under gentle shaking. Prior secondary antibody incubation, membranes were washes 2 times using TBS-T for 10 minutes. As secondary antibodies we used IR Dye 800n CW Goat-anti-Rabbit (925-32211, Licor) and IR Dye 680 CW Goat-anti-Mouse (925-68070, Licor) both diluted 1:10000 in blocking buffer for 1 h at room temperature under gentle shaking. Membranes were washed three times with TBS-T prior IR detection using Odyssey imager. To quantify the results, each band was quantified using ImageJ and data expressed as pDAB1:βActin ratio normalized to the control. […]

pDAB1 (Tyr232) [2] = experiment: HRECs treated 5 minutes with recombinant mini-RELN, pDAB1 western blot; type: cell-based, human; conditions: 5 minutes, 4 ug/mL recombinant protein
Protocol: For in vitro screening of constructs using recombinant mini-RELN on HRECs, the cells were cultured in EBM-2 media enriched with EGM-2 Single Quots (Lonza) at 37° C. and 5% CO2 and experimentally tested at passage 7. 24 h prior experiment, cells were plated on a 6-well plate at 500,000 cells/mL. Two hours before the experiment, the cells were washed with PBS to remove residual growth media and then incubated with a starving media including EBM-2, 1% GlutaMax+0.2% Normicin. Treatments was conducted using recombinant mini RELN constructs obtained from Innovagen and Recombinant Mouse Reelin Protein from R&D systems (3820-MR-025/CF). Each treatment was incubated for 5 minutes at 4 ug/mL concentration and cells were subsequently harvested in lysis buffer was applied constituted of RIPA (Cell signaling), proteases inhibitors (cOmplete™, Mini, EDTA-free Protease Inhibitor Cocktail, Roche), phosphatases inhibitors (PhosSTOP, Roche), 1 μL of proteasome inhibitor MG-132 10 mM, 1% Triton X 100. The lysates were scraped and centrifugated at 15000 rpm for 10 minutes at 4° C. Total protein levels were quantified via BCA assay. For Western Blotting, 3.5 ug protein homogenates were prepared under reducing and denaturing conditions using Laemmli buffer enriched with 10 mM DTT and 5 min boiling. Samples were electrophoretically separated in a 4-20% Gel at 90V and protein transferred to a PVDF membrane using iBlot™ 2 Dry Blotting System. The membrane was blocked using Intercept® (TBS) Blocking Buffer for 2 hours. We detected pDAB1 (Tyr232; 1:1000, rabbit, #3325 Cell signaling), and total protein staining (Licor). Antibodies were diluted using Intercept® (TBS) Blocking Buffer and incubated overnight at 4C under gentle shaking. Prior secondary antibody incubation, membranes were washed 2 times using TBS-T for 10 minutes. As secondary antibodies we used IR Dye 800n CW Goat-anti-Rabbit (925-32211, Licor) diluted 1:10000 in blocking buffer for 1 h at room temperature under gentle shaking. Membranes were washed three times with TBST-T prior IR detection using Odyssey imager. To quantify the results, each band was quantified using ImageJ and data expressed as pDABL:total protein ratio normalized to the control.

| Molecule | pDAB1 / Dab1 signaling activation (pDAB1 (Tyr232) [1]) | pDAB1 levels (pDAB1 (Tyr232) [2]) |
| --- | --- | --- |
| Il2ss-flagMini-RELNFspCR50R5-6CtermH3447R (protein) MYRMQLLSCIALSLALVTNSGGDYKDDDDKTGGAAGYYPRFSPFFFLCTHHGELEGDGEQGEVLISLHIAGNPTYYVPGQEYHVTISTSTFFDGLLVTGLYTSTSVQASQSIGGSSAFGFGIMSDHQFGNQFMCSVVASHVSHLPTTNLSFIWIAPPAGTGCVNFMATATHRGQVIFKDALAQQLCEQGAPTDVTVHPHLAEIHSDSIILRDDFDSYHQLQLNPNIWVECNNCETGEQCGAIMHGNAVTFCEPYGPRELITTGLNTTTASVLQFSIGSGSCRFSYSDPSIIVLYAKNNSADWIQLEKIRAPSNVSTIIHILYLPEDAKGENVQFQWKQENLRVGEVYEACWALDNILIINGSRGGQTNATRFRLWQPYNNGKKEEIWIVDDFIIDGNNVNNPVMLLDTFDFGPREDNWFFYPGGNIGLYCPYSSKGAPEEDSAMVFVSNEVGEHSITTRDLNVNENTIIQFEINVGCSTDSSSADPVRLEFSRDFGATWHLLLPLCYHSSSHVSSLCSTEHHPSSTYYAGTMQGWRREVVHFGKLHLCGSVRFRWYQGFYPAGSQPVTWAIDNVYIGPQCEEMCNGQGSCINGTKCICDPGYSGPTCKISTKNPDFLKDDFEGQLESDRFLLMSGGKPSRKCGILSSGNNLFFNEDGLRMLMTRDLDLSHARFVQFFMRLGCGKGVPDPRSQPVLLQYSLNGGLSWSLLQEFLFSNSSNVGRYIALEIPLKARSGSTRLRWWQPSENGHFYSPWVIDQILIGGNISGNMVLEDDFTTLDSRKWLLHPGGTKMPVCGSTGDALVFIEKASTRYVVSTDVAVNEDSFLQIDFAVSCSVTDSCYAIELEYSVDLGLSWHPLVRDCLPTNVECSRYHLQRILVSDTFNKWTRITLPLPPYTRSQATRFRWHQPAPFDKQQTWAIDNVYIGDGCIDMCSGHGRCIQGNCVCDEQWGGLYCDDPETSLPTQLKDNFNRAPSSQNWLTVNGGKLSTVCGAVASGMALHFSGGCSRLLVTVDLNLTNAEFIQFYFMYGCLITPNNRNQGVLLEYSVNGGITWNLLMEIFYDQYSKPGFVNILLPPDAKEIATRFRWWQPRHDGLDQNDWAIDNVLISGSASTRKQNYMMNFSRQHGLRRFYNRRRRSLRRYP | more robust compared to controls and compared to 233A | – |
| IL2ss-6xHis-hReelin R3-R6 CT-H3447R (protein) MYRMQLLSCIALSLALVTNSGGHHHHHHGGSRFSSTAPVLLQYSHDAGMSWFLVKEGCYPASAGKGCEGNSRELSEPTMYHTGDFEEWTRITIVIPRSLASSKTRFRWIQESSSQKNVPPFGLDGVYISEPCPSYCSGHGDCISGVCFCDLGYTAAQGTCVSNVPNHNEMFDRFEGKLSPLWYKITGAQVGTGCGTLNDGKSLYFNGPGKREARTVPLDTRNIRLVQFYIQIGSKTSGITCIKPRTRNEGLIVQYSNDNGILWHLLRELDFMSFLEPQIISIDLPQDAKTPATAFRWWQPQHGKHSAQWALDDVLIGMNDSSQTGFQDKFDGSIGGGTLDSRKWLLHPGGTKMPVCGSTGDALVFIEKASTRYVVSTDVAVNEDSFLQIDFAVSCSVTDSCYAIELEYSVDLGLSWHPLVRDCLPTNVECSRYHLQRILVSDTFNKWTRITLPLPPYTRSQATRFRWHQPAPFDKQQTWAIDNVYIGDGCIDMCSGHGRCIQGNCVCDEQWGGLYCDDPETSLPTQLKDNFNRAPSSQNWLTVNGGKLSTVCGAVASGMALHFSGGCSRLLVTVDLNLTNAEFIQFYFMYGCLITPNNRNQGVLLEYSVNGGITWNLLMEIFYDQYSTGGSGGSTRKQNYMMNFSRQHGLRRFYNRRRRSLRRYP | efficacy | increased pDAB1 levels |
